Reference: the domain aggregation screens of Martell et al. (2025)

assay: soluble fraction after stress (log2 fold change); higher = more stays soluble; pooled small domains, quantitative proteomics; details: stress: pH 4
How it was run: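 Aggregation propensity is read out as the fold change in how much of each domain remains soluble after acid stress. The custom small-domain libraries were pooled, held at pH 4 and analysed with high-throughput quantitative proteomics. On the log2 scale used, higher values mean more of the domain stayed soluble.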

Sequence | soluble fraction (log2)
HMGTHSAEQVRAAIRAIVAAEDAANPLSDARITELLAMRGIAAARRTVMKYREQLGIPSSAKRRR | ≥ 0.43
HMFEMPTSLVRTLSAIAIKQPVMQSEIIKLRGAGAYDHIKELIIRELVHRKEEGRSPILTTTKKFQEYFRL | -0.948
HMSVLEHVSGNVRRLRLQAGLSQEALARAASVSRRMLVGIESGDVNVSLSTLDRIAAALGVLFPDLVQAP | -0.392
HMSKISKENEQQVIQIVQTLLLNVQDKSLITTQILNEKINLAVSLDTKYKENLDRDYIIEELIRRYSVW | -2.54
HMNEYSLVPDIYGMTYDDALSSLRNVGLDGRLALASTNEDLANADTRVVWQSKEAGSIIDKGSNVMFVID | -1.27
HMSATVLVHVLGEVRKPGVVSLPEGSRVQDAITAAGGLTSRAKPGDLNLAARVSDGAQLVIGRSGSQVRTT | 0.103
HMNTPLYLKIREQIFDALRSGRWAANDPLPSETKLASEFEVSQGTIRKAIDDLVAQNILYRHQGRGTFIRR | 0.125
HMLPELIVTTKKGVTVTVTNGVITYSATSNGKATFTVPNYGKWTVSATINGTVISKVVDVTEAKQIPVLLG | -0.318
HMEDSSSILNRMRKLIALLNRASEAYYKENKEIISNFEYDRLYDELLGLESRSNTVLSGSPTYKV | -1.21
HMSYIGEEKAKSIAVSNVKGAGTNNVVKVEFDYDDGRAVYEVKVVYNAMEYEFEIDASNGKILSRDAESIY | -0.027
HMNNDFIVKSTDSHKVNLRSQPDTHADIIKRLDDHTIVEKLKTVRKNWYLVQLKDTTTQGYVHKSQLERV | 0.21
HMGIRDIHITVNGESLKLSKKQNYIFVDIFDFYPFDLSILGGSKLITTINGEQAEFTSPLKDGDVVELYWK | -0.977
HMDKWFPVSSDHKVQVGDYLRTADGLVKVEATHNEYGTFYGKIITAIHDDVVKGETYEYRIDDVQVLA | -1.77
HMKIAPRTAENQQLRKMILEIYTTSKKRVGPAKVRRMLLRDYGISISIGRVYRLMSTMNLPKMS | 0.22
HMEDTSTLSIKHKIKELINQESPQAILSDDKLVELLAAQGIKIARRTIAKYRETMNIPTSAERKRQKRPP | 0.275
HMAGIPIHMSQLKQIILLLSQGYPIKGIARETGVSRNTIKGYLQTLTSQDLNVTDALKLENIQLEYLLRSP | -0.239
HMSYKFDSLAIILNKLDGKETVNVSSLSDELEVSARTVHRYIGTLQVAGFPIEYDKTKNSYIFSEGYTL | -1.05
HMDSLEIEEPITVKSLSAASGLKISDIIRKLMQEGIMATANQVIDREQAEAVLIDYNVDLVVKR | 0.0392
HMPDYYAILEVERTADAKTIKAAYRKLALAYHPDRNPGDQAAEERFKQINEAYAVLSDPEKRARYDRYGSV | 0.139
HMLDYQLQVFKDTLEANRKHRGQKIVFIHGKGEGVLRRALIHALNYQYKKFTYQDASFREYGYGATQVTI | -0.0148
HMPDKIDSAAQGILDKLIRNDGFMAVTDKSPPEAIYKLFGVSKKVFKQAIGSLYKNRLITIEDAGLRIIPQ | -0.214
HMVQPSAAVRAHPVGAFVEQRQGLSDDQILALQKKWNEGIYARIQGTRWFLFSKDTPAVTSLLLVPDLP | -0.0222
HMLESVMHSRIAEIISREGTAPAHMSMQEKIRVVHKLDADGILMMKGAVAEIADQLSVSVPTIYRYLNKPQ | ≥ 0.43
HMGTSSAEIAAELRAQIFAGELRPGEMLPSAREITGTWNVAIATASRVHALLRSEGLATPVPGVGTVVAT | -0.17
HMYTDGVPALTDLKKESKPGRRQYVGVEDIPKVLGGLGITILSTSKGLMSGHQAKKKNIGGELIASV | -0.0153

Sequence | soluble fraction (log2)
HMQILPAFLPENPELRARLANHSLEELTEILKQYKTLHNSTDVDTVKRAIRAIEIEEYYAVHPV | -0.635
HMGGKWKPIILYYININSVARYSELKRFIPSINERMLTRQLRELEEDNLIERKVYPIVPPKVEYRLTEYGK | 0.0222
HMSEDAVKFRAAVEVENGLAQRNLNKNQAALILGVDRSYFTYIISGKKTPSPDMAKRIGLLLGFDWRVFYA | -0.324
HMSDFSNLNLLELNSSELDLLLRRASSQGLTQMDLLKMARSQGLSEADLIKVKGKIDTSESIKR | -0.0416
HMGQDLEAFLLKAVGQLDQGDGVTLDALLKVAVSNGGFVREVAEAKLDDMLDAGTLDEPRFGWFRVGAT | -1.68
HMKMLPAEVLTHPAVVALIERGAPTGSITPEEVRQASEDAAVEPRHLKALLAHLSALGISVQIP | -0.266
HMSGPMVPNVVGLSEEMARALLSDYSITIKHAHDGVIPKDRVASQLPLATTHAKVGSSVVLTIS | 0.238
HMGTVISVDKARSIALAKVPGASANDIRIHLDRDDGRQIYEGEIYYNRMEYEFEIDASTGTIIEWSAEHW | 0.00283
HMREVTVGSAVRLKKGAKTYSGGSLASFVYERNHQVTQLSGDRAVISFKGTVVAAVHKDDLIL | -0.0626
HMKNDKLLIFMELKGISRTQLSKSTGIPASTLGRIINGDVQKIKAVYMEAIANALDTSIHTIFDV | -0.352
HMGASSLVGRSARVLQAVTDSDGRIKLAGETWSARLAAGATSTVGPGEEVRVIAIHGATAIVAPV | 0.0834
HMVEVPKVAGMSTAQGVSELEQKGFVVNRTESYDDTVPKGNIISQTPEGGTKVPSGSAVTIKISQGAE | -0.0558
HMSSLEQVYPNPVSSILKLNSFIKNYKILNATGHEVLKGSGNTINVGKLPSGSYFLITSENYSIKFIK | 0.119
HMRDTAKTLLAMEVVGENNKKNLQAFGIQKGDQNYQTAVVVRLMQKALMEGDTSAIRLIGELTGD | -0.44
HMSMFAQQLKDLRKKIPGLTQTDMAKKLGIAKTTYASYEQGKRTPDIETQNKIADFFNVSLDYLHG | 0.22
HMKKHALFTLFKHHNANGTTVWYARFWDDATQRYAIARSTGVLAQGKRERHDEAITVAREMASSIQFS | 0.264
HMHVSIAENIRRIRTQHDMTQEEFGKVAAVSAMAVSQWENGRAVPRMGAVQRIADYFNISKGEVID | 0.121
HMFYLPEPLTEQELRILGMLLDGRSNPEIAAELFIAVGTAKWHVHNILQKLGVANRAQAIVKAHELGLT | -1.88
HMLAQDVIVKQDGGTILSKVLEIGTQEIAYKKWNSQDGPVYKIAKDQVLSVNYQNGEVDRFA | -0.233
HMNFGEVLQTKRKSMGLTQEDLADKLFVSSETISNWETNKTTPDIDNVIRISQLFDISLNNLLL | -0.89
HMIGVNMEKSTVEKFANELNLPIDLLLKQLESAGIKKTSGAEELLEADKSALLNYLQIEHGA | -0.678
HMSDIYSLFERELGRTLSSYEYEIIGKWIEKGVSEDTIKRALKEAILNGVTNFKYIDKIIYDWSKN | -1.05
HMLEEIDYPEEQLQLLFAWSRDHVQSTPPGLPVVDDHVWHILVRGYGATDQRTEAFALLASYAGFP | -0.722
HMGITPSIEMILEYFAFKESSETEANKFFNYYSSIGWLVGGKTKMKDWKASARNWIMNQNKFQ | -1.01
HMLTIQNYFNQVKNIDWEQVPAALSKGHQLVEGASQNNWSAYHSNANIQRVVEAYFQKLNDYLEKN | -0.168

Sequence | soluble fraction (log2)
HMKVIAEESYRILVDAIEKLPPQMKSIMQLALEGKSNPEIAETLNISGETVHSQKKIAYRKLRVYLKD | -0.144
HMGQELRFVIQDHEAGIRLDHYLTQQVEGYSRSHLRKLMDQGLITVDGSYRKAGYRLNVGDVIHVVIPPTR | -0.0619
HMNGIFEYSDAKKVPSLVEIENAYRRARVNGAEKFAVIINGEYFGYNPQKRGIYKLNDGEYQIL | 0.115
HMEPAPELTPREQQVLARIALGMTDKAIAEELGVSHQTVRNHVARIYQKIKVHSRSQAVVWAREKGI | 0.0801
HMQYTQKTMYINDSYVNLRKSASTSSDIIMVVELNTKLTVIGEDGDWYKVKTSSGNAYVLKTLLSNEKKET | -0.368
HMTKPLHELLSQREFQVFTQLAAGRSVGEIAQQLSLSSNTVSTYRARILEKTGTRNDVELALYAIRR | -0.231
HMAMTRTEYLNQLKHYLKRLPHTDYEEAMDYFKEYFEEAGPENEAQVIQDLGNPKEAAYEILSQLL | -0.615
HMEMLQENIRNLRKAKGWSQEELAIKLNVVRQTVSKWEKGLSVPDSQMLIRIADELDTTVAILLG | 0.253
HMSSKIKYSEFITMLDKGEVESVVLKSDTLTITLKHGTGVAAQTKTTTLMEDLSELTKRLEKAGIKDFDK | 0.22
HMSIQDLMNSKDLSGFKVEMLSNEDIVKYKSMLQSSGFSESQAEQLALQRGLPTSELIKLRTRISDVAVT | 0.17
HMSAAYVYVTGTRVNQRDGPSTFDRVMGVLVEGTRVQLLRDQGQWAQIRSDLGTGWLSSGFLSRNG | 0.0158
HMSRYLLPYAFARTQQVLLEEKSGELTLWMHSGSNLGGISEVTRKYAVQHVTHEPMDALLNRISSAYAN | -2.03
HMPSLSAILHDARVAAGLSMRQASAASGLSIGFISMLEQGKVQDISLQRLGRLVTAYDLEPLDVIEAAG | -0.848
HMKKYIEIYNYYKQLIESEQLKSGDKMPSVRKATKIFNVSKTTVQNAYFDLQADGYIIAAPKSGYYVTEM | -0.7
HMGGPEPIPAQIREGDTVYVTKFKQLGLVLKISEDTAEVQIGPLRATVAKTELSKVDATATEHR | -0.0107
HMIMVAGHLQIKKGKYYMVLELKSESGERKTKWISTGLSAKGNKRKAEAMLEEARENYQSTDA | -0.0361
HMNKYNNIEDLKEEDFENISEKYQVPVSFVKSKLDDLINWHEKNPQKNHYKNYLSALRDWVKRDSLKIKL | 0.0178
HMGQKMLTIELQEKVNKMPDNLASYDLKLSADGMSLIYKYSLKSERTGITALLQELKNAGLVMRDLKTEQ | -0.302
HMTDLNDTQIKILELLSADASLSAAKMAGQLGIAGRNVEANIKKLKEKGILIRHGSPKSGYWEIVN | 0.0328
HMKITLAESVYERIRRDIITNQLKPGEKINIRELSTRYEASETPIRLALNRLASENIIEHFPRQGMRVK | -0.0624
HMLTANPEEVVNRLTSAGEVGVRPLLDVDDPINAISTLLAIREDVYKQFAQFDTVGKSPSEIAHEIDDFL | -0.162
HMVPTVSVDRDDTLRFEGRPVDWDVLKRELGAVAGIDELKIYADAKVSALTVSKIMKSASEAGVLQFILVT | -0.334
HMSRVHHGFNISIARNRKGLKQAALADMLGISQQRLSQLENQRVVKDEILEKVSEATGVSVEDLKTIE | 0.171
HMVNFKLIGNKIAEARKKVNISQAQLAQRLFISSQAVGKWERGESMPDIITFNRLAEILGVDLNYFSE | 0.266
HMNNIGSKIKSAKILNNLDDNQLSEITGIDKLQLRSIQDGQVNPTKMELEIISKALKLPTNYFTK | 0.154
